Results reported in patent US20240124568A1, “CHEMERIN INHIBITORS AND USES THEREOF FOR TREATING KIDNEY CANCER” (University of Miami, priority 2022, published 2024).
“Also recorded” adds a separate entry of the source.

Key:
[1] = system: chemerin-knockdown 786-O cells; test: Cell proliferation assay, rescue in chemerin-knockdown 786-O cells; format: cell-based, human
Protocol: Cell Proliferation Assay. Cells were plated at a density of 100,000 cells in triplicate wells of a 6-well plate, supplemented with DMEM containing 10% FBS. Cells were trypsinized and were counted using the Cell Counter Countess II (Life Technologies) at days 3, 6, 9 and 12.

786-O and 769-P cells = test: EdU incorporation assay (DNA synthesis); format: cell-based, human; settings: chemerin-knockdown 786-O cells, etomoxir 50 μM and 100 μM, EdU flow cytometry
Protocol: EdU incorporation assay. […] After incubation, the cells were fixed with 3.7% formaldehyde/PBS for 15 minutes at room temperature and washed with 1 mL of 3% BSA/PBS twice. 1 mL of 0.5% TritonX-100 in PBS was added for 20 minutes at room temperature to permeabilize the cells. Next, cells were incubated with 0.5 mL of Click-iT reaction cocktail (Invitrogen, Cat #C10337) prepared according to manufacturer's instructions, at room temperature for 30 minutes and away from direct light. DAPI (Millipore, Cat #268298) was added later for DNA staining. […]

[2] = system: HIF2α and chemerin protein in 786-O and 769-P cells; test: Immunoblots of lysates after fatty acid treatment; format: cell-based, human; settings: 500 μM fatty acid
Protocol: Protein Extraction and Western blotting. The cells were washed with 1× ice-cold PBS (GE, Cat #SH30256.01) once before they were lysed in RIPA lysis buffer (50 mM Tris-HCl, pH 7.5; 150 mM NaCl; 0.5% NP-40; 50 mM NaF) and scraped from the plate on ice. The RIPA lysis buffer contained 1:1000 1× protease inhibitor cocktail (Sigma-Aldrich) and 1:100 1× phosphatase inhibitor (Sigma-Aldrich). The lysates were passed through a 16G needle 15 times before they were centrifuged at 4° C. for 20 minutes at 20,000×g. The protein lysates were quantified using the Pierce BCA Protein Assay Kit (Thermo) according to the manufacturer's protocols and absorbance was measured using GloMax Discover Microplate Reader (Promega). Between 50 and 100 μg of protein samples were mixed with 5×SDS Laemmli loading buffer and boiled at 95° C. for 5 minutes. Proteins were separated using 4-20% SDS-PAGE gels (Bio-Rad) and transferred onto PVDF membrane (Millipore). The membrane was blocked with TBS-T supplemented with 5% non-fat dry milk primary antibody for 45 minutes at room temperature rocking before blotting with primary antibodies at 4° C. overnight. The membrane was washed in TB S-T 3 times with 5 minutes each and blotted in secondary antibodies at room temperature for 2 hours. An Azure 300 chemiluminescent western blot imaging system (Azure biosystems) was used to visualize the membrane. […]

HIF2α mRNA in 786-O = test: qRT-PCR of HIF1α and HIF2α after fatty acid incubation; format: cell-based, human; settings: 500 μM fatty acid for 24 hours
Protocol: RNA Isolation and Real Time Quantitative Polymerase Chain Reaction (qRT-PCR). Total RNA was extracted using TRIzol reagent (Invitrogen, Cat #15596018). The concentration and quality of RNA were determined using a NanoDrop 1000 spectrophotometer (Thermo). 500 ng of RNA was used to synthesize cDNA using the Quantabio qScript cDNA SuperMix (Quantabio, Cat #95048-100) according to the manufacturer's recommendations. The cDNA was diluted by 10-fold before used for qRT-PCR gene expression analysis. qRT-PCR was performed using Power SYBR Green PCR Master Mix (Applied Biosystems, Cat #4367659) and SYBR Green primers (Table 3). The Ct values of the gene of interest was normalized to the Ct value of the housekeeping control, β-actin. The fold change was then calculated using the 2^−ΔΔCt method. Sodium palmitate preparation and supplementation. To prepare BSA-palmitate conjugate, sodium palmitate (Thermo, Cat #P0500) was added to a NaCl solution and heated in a water bath while stirring. The hot palmitate solution was mixed with BSA solution, 5 mL at a time. The final volume was adjusted with 150 mM NaCl for 1 mM palmitate solution and pH was adjusted to 7.4. Sodium palmitate solution was added to cell at final concentration 500 μM and incubated for 24 hours.

HK-2 cells = test: Cell viability assay (MTT) after monoclonal antibody treatment, HK-2; format: cell-based, human; settings: similar dose range of the antibody
786-O orthotopic tumors = test: Orthotopic 786-O tumor growth under left kidney capsule of nude mice (bioluminescence imaging); format: in vivo; settings: for in vivo 786-O tumor growth (bioluminescence imaging): 20 mg/kg twice weekly versus IgG control mAb, n=6 each arm; for animal weight / toxicity: nude mice with orthotopic 786-O, 20 mg/kg twice weekly, weight recorded weekly
Excerpt: Animal Studies. All animal experiments were in compliance with National Institutes of Health guidelines and were approved by the Institutional Animal Care and Use Committee (IACUC) of the University of Miami Miller School of Medicine. Six-week-old female athymic nude mice (Charles River Laboratories) were used for xenograft studies. Mice were housed (3-5 mice per cage) on a 12-hour light/dark cycle in individually ventilated cages, and with ad libitum access to food and water. The experimental holding room had temperature (21.5° C. set point) and humidity control (40% set point), and it was equipped with HEPA-filtered air. For subcutaneous tumor growth model, cells were pelleted and resuspended in a PBS/Matrigel Matrix (Corning, Cat #356234) mix at 1:1 ratio. 2×10^6 cells in a 100 μL solution were injected subcutaneously into each flank. Once palpable tumors were established, digital calipers were used to measure tumor size twice weekly. Tumor volume was calculated using the equation V=½ (length×width^2). For orthotopic tumor growth assays, soft collagen pellets containing 1×10^6 cells were implanted orthotopically under the capsules of the left kidney. Tumors were palpated and monitored twice weekly using IVIS bioluminescence imaging (Perkin Elmer). At the end of the experiments, blood was collected and both kidneys were harvested.

786-O cells [3] = test: Oil Red O (ORO) lipid droplet staining of cells; format: cell-based, human; settings: compared to treatment with IgG
Protocol: Oil Red O (ORO) Lipid Droplet Staining. For tissue sections staining, the tissues were cryoprotected by incubating in 30% sucrose/PBS solution. After the tissues sank to the bottom of the vial, the tissues were embedded in OCT (Fisher Healthcare). Embedded tissue blocks were sectioned at 10 μm thickness and stored at −80° C. until ready for staining. Before ORO staining, the frozen sections were air dried and fixed in 10% neutral buffered formalin (Sigma-Aldrich, Cat #HT501128). After fixing in 100% propylene glycol (VWR, Cat #0575) twice, sections were stained with freshly made ORO solution (Sigma-Aldrich, Cat #00625) followed by staining for hematoxylin. Then, the slides were washed with distilled water and mounted using glycerin jelly (Sigma-Aldrich). The sections were visualized using a VS120 Virtual Slide Microscope scanner (Olympus). For cell staining, the cells plated in 12-well plates in triplicate were rinsed with PBS twice, and fixed with 10% formaldehyde for 1 hour. […] After the cells were air dried, 250 μL of isopropanol was added to the wells and the eluted solution was measured at 510 nm. Next, the cells were stained with sulforhodamine B as previously described, and measured at 564 nm using GloMax Discover Microplate Reader (Promega), as previously described.

[4] = system: patient derived xenograft of kidney cancer; test: Patient derived xenograft of kidney cancer, antibody versus cabozantinib (FIG. 20); format: in vivo; settings: antibody 20 mg/kg twice per week versus cabo 10 mg/kg 5 times per week
786-O cells [5] = test: Cell viability assay (MTT) after monoclonal antibody treatment, 786-O; format: cell-based, human; settings: increasing concentrations of mAb, 2, 4 and 6 days
Protocol: Cell Viability Assay. After treatment with monoclonal antibodies, 786-O cells were incubated with 3-(4,5-dimethylthiazol-2-yl)-2,5-diphenylterazolium bromide (MTT, Sigma-Aldrich) to assess cell survival. Briefly, the cells were plated at density of 1000 cells/plate in 96-well plates and treated with different concentrations of monoclonal antibodies (IgG or anti-RARRES2) for indicated incubation times (2 days, 4 days and 6 days). MTT solution was diluted 5-fold in DMEM media and incubated in 37° C. incubator for 4 hours. The media was carefully removed and the precipitate was dissolved in DMSO. The solution later immediately quantified at 450 nm using the GloMax Discover Microplate Reader (Promega).

786-O cells [6] = test: Lipid reactive oxygen species, BODIPY 581/591 C11; format: cell-based, human; settings: compared to treatment with IgG
Protocol: Lipid Reactive Oxygen Species. The cells were plated at 50,000 cells per well in 24-well plate. 10 uM BODIPY-581/591 C11 (Invitrogen, Cat #D3861) and 1 ug/mL DAPI (Millipore) were added to the media and incubated for 1 hour at 37° C., 5% CO2. Cells were imaged using Olympus FV1000 confocal scanning microscope and analyzed using Fiji software (ImageJ). 9 randomly selected images per condition were selected for analysis.

786-O cells [7] = test: BODIPY 493/503 lipid droplet imaging; format: cell-based, human; settings: chemerin-silenced 786-O cells; 50 nM recombinant chemerin protein for 18 hours
Protocol: BODIPY Lipid Droplet Imaging. Cells were plated on round glass coverslips of 12-well plates and incubated with 1 mL of DMEM supplemented with 10% FBS. The medium was removed and cells were washed with room temperature PBS, fixed with 4% formaldehyde for 30 minutes and incubated with 300 μL of 1 uM BODIPY 493/503 (Life Technologies, Cat #D3922) for 15 minutes, protected from direct light. 1 μg/mL of DAPI (Millipore) was added for nucleus staining. The z stack images were acquired using Olympus FV1000 confocal scanning microscope and analyzed using Fiji software (ImageJ).

CCOC(=O)c1ccc(NC2CCCCC2)c(N)c1 [Ferrostatin-1]
rescue of proliferation defect ([1]; chemerin-deficient 786-O cells, 1 μM Ferrostatin-1): rescued the proliferation defect

Clc1cccc(CN=C2Nc3ccccc3NC23CCNCC3)c1 [Liproxstatin-1]
rescue of proliferation defect ([1]; chemerin-deficient 786-O cells, 0.5 μM Liproxstatin-1): rescued the proliferation defect

CCOC(=O)[C@@]1(CCCCCCOc2ccc(Cl)cc2)CO1 [etomoxir]
rescue of proliferation defect ([1]; chemerin-knockdown 786-O cells, 50 μM Etomoxir): rescued | rescue of proliferation defect ([1]; chemerin-knockdown 786-O cells, 50 μM Etomoxir, listed as Etomoxir): rescues proliferation defect | rescue of DNA synthesis (EdU) (786-O and 769-P cells): rescued the reduction in DNA synthesis | rescue of DNA synthesis (EdU) (786-O and 769-P cells; listed as Etomoxir): rescues tumorigenesis

CCCCC/C=C\C/C=C\CCCCCCCC(=O)O [linoleic acid]
HIF2α protein [2]: opposite pattern; also recorded: decreased | chemerin protein [2]: opposite pattern; also recorded: decreased | HIF2α mRNA (HIF2α mRNA in 786-O): opposite pattern

B1: chemerin mAb: monoclonal antibody against chemerin; heavy chain SEQ ID NO: 3, light chain SEQ ID NO: 4 (antibody, V domains shown)
VH: MEWNWVVLFLLSLTAGVYSQGQMQQSGAELVKPGASVKLSCKTSGFTFSSSYISWLKQKPRQSLEWIAWIYAGTGGTSYNQKFTGKAQLTVDTSSSTAYMQLSSLTSEDSAIYYCASFWDSWGQGTTLTVSS
VL: MRCLAEFLGLLVLWIPGAIGDIVMTQAAPSVPVTPGESVSISCRSSKSLLHSNGNTYLYWFLQRPGQSPQLLIYRMSNLASGVPDRFSGSGSGTAFTLRISRVEAEDVGVYYCMQHLEYPLTFGAGTKLELK
cell viability (HK-2 cells): cell viability was not affected | in vivo 786-O tumor growth (bioluminescence imaging) (786-O orthotopic tumors): significantly reduced | in vivo 786-O tumor growth (bioluminescence imaging) (786-O orthotopic tumors; listed as monoclonal antibody (mAb) targeting chemerin): reduces ccRCC tumor burden | tumor weight upon sacrifice (786-O orthotopic tumors; 20 mg/kg twice weekly versus IgG mAb, n=6 each group): lower tumor weights | animal weight / toxicity (786-O orthotopic tumors): did not result in significant changes in animal weight | animal weight / toxicity (786-O orthotopic tumors; listed as monoclonal antibody targeting chemerin): no toxicity | lipid droplets (ORO staining quantification) (786-O cells [3]): decrease in lipid droplets | efficacy compared with cabozantinib [4]: as effective as cabo | cell viability (786-O cells [5]): dose-dependent reduction in cell viability | lipid ROS (BODIPY 581/591 C11) (786-O cells [6]): increase in lipid ROS

B2: recombinant chemerin protein: recombinant chemerin protein used to rescue chemerin-silenced cells (protein, UniProt Q99969 21-157, looked up)
Retinoic acid receptor …: ELTEAQRRGLQVALEEFHKHPPVQWAFQETSVESAVDTPFPAGIFVRLEFKLQQTSCRKRDWKKPECKVRPNGRKRKCLACIKLGSEDKVLGRLVHCPIETQVLREAEEHQETQCLRVQRAGEDPHSFYFPGQFAFS
rescue of lipid deposition (BODIPY 493/503) (786-O cells [7]): partially rescued; also recorded: rescued the lipid deposition defect
